Source: patent US20060177442A1 (Bristol-Myers Squibb, published 2006)

Target: T1, CD30 on Hodgkin-derived cell lines (L540, L428) (human, UniProt P28908 19-595)
T1 sequence (looked up): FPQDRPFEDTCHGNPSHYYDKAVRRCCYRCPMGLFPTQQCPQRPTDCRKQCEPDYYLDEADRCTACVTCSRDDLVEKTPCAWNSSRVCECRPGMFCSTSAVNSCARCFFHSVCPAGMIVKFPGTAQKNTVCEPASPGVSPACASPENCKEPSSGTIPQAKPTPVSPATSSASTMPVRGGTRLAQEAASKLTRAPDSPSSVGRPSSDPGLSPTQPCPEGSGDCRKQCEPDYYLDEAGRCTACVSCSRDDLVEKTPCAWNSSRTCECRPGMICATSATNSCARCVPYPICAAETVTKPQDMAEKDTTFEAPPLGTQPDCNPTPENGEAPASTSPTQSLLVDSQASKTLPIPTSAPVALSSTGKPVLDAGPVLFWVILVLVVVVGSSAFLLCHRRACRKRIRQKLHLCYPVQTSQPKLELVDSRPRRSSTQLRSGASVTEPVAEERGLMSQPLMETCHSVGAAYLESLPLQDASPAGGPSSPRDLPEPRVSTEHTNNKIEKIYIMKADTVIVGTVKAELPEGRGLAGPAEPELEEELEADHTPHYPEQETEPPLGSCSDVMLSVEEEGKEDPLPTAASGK
Experiment: cell-based or functional assay

NF-κB-responsive luciferase reporter gene in transfected L428 cells: ~2 fold
B1: fully human anti-CD30 monoclonal antibody 5F11 (antibody, V domains shown)
VH: QVQLQQWGAGLLKPSETLSLTCAVYGGSFSAYYWSWIRQPPGKGLEWIGDINHGGGTNYNPSLKSRVTISVDTSKNQFSLKLNSVTAADTAVYYCASLTAYWGQGSLVTVSS
VL: DIQMTQSPTSLSASVGDRVTITCRASQGISSWLTWYQQKPEKAPKSLIYAASSLQSGVPSRFSGSGSGTDFTLTISSLQPEDFATYYCQQYDSYPITFGQGTRLEIK
